Experimental data published in patent US20240026407A1, “MODIFICATION OF SAPONINS” (GLAXOSMITHKLINE BIOLOGICALS SA, priority 2020, published 2024).

B1: 1008 (protein, listed as Pedobacter heparinus)
chain: MNLKTTGIVLVLSTIVCFPCIAQKNLEQSFKVTPDTIQTSVYWYWMSDNISKDGVVKDLYAMKSAGINRAFIGNIGYETTPYGKVKLFSAEWWDIMHTALKTATNLNIEIGVFNSPGWSQSGGPWVKPAQAMRYLASTKANFVGPKQLNVQLEKPKGYFQDVRVIAYKTPKAYGNSIAVHKPKLSSSISVQNINNLIDGSENTTVDIPATESITIDLETSSSFTARSLVVYPAHKGLNVNVELQVKKNKEYVSVKTFSVNRTNSNLHVGFKPYGPVAVSIPPTIGHSFRLVFGKSGGFGLAEVVLSQTPVVESYTEKTLAKMFQSPLPYWNEYQWPDQPLIDDLSLVIDPKTVIDITTFMNAEGQLKWDLPAGNWTIMRTGMLPTGVKNGPASPEGTGLEIDKMSKEHVANHFDAFMGELLRRIPAADRKTWKVVVQDSYETGGQNWTDDMIEKFKASFHYDPLPYLPVIQGEVVGDQNQSDRFLWDLRRFIADRVAYDYVGGLRDISHKHGLTTWLENYGHWGFPGEFLQYGGQSDEIGGEFWSEGELGNIENRAASSAAHIYGKTKVSAESFTAGDKPYQRYPYIMKQRGDRFFTEGINNTLLHLFIQQPSEDKVPGINANFGNEFNRHNTWFSYIDLFTGYLKRTNFMLQQGKYVADVAYFIGEDAPKMTGITDPALPAGYSFDYINAEVIQTRMKVKDGRMVLPDGMSYKLLVLPKLKTMRPELLAKIKELVAQGANILGPAPERSPSLANFPEADAKVKRMVTELWGNVNGTTIKTRKLGKGTIMSGMDMKLALNALNILPDFKTNTTDPVLFIHRSGPQAELYFISNQSEKQITFSPTFRSVDMQPELWDPVTGKTRVLSELSANGSSTTIPLTLEPLQSIFVVFRNPLVASPIRAINFPEAKTIEEINGPWKVTFNSQMRGPEKPVMFDTLIDWTKRPEESIKYYAGTAVYSNSFRATKPVKGERIYLYFSEVSVMAKVKVNGTDVGGMWTAPWRVDITDAIISGVNTLDISVVNNWVNRLVGDSKLPEAKRKTWTNNNPYTPDSKLVPSGLTGKVVVKTIKY
B2: 1042 (protein, listed as Streptomyces scabiei)
chain: MNPTAPAEQTPTDITVSVTGLRTADDSGLVATAHAMPRLSWSLTGTRPGILQHAYEIQVSGAPSFDDTTSSGQVESGTVTDHPWPAQPLSSRETRHWRVRVRTDRGWTRWSDPARVEGALLDAVDWAARPVHVPSDRGRPSPGPVPLLRREFHLPAEPVSARLYVTSLGVHRTTLNGRPVSADLLEPGWTSYPDRLLYATYDVTGLLRPGPNALAAAVGDGWFRGHLTWHKNRDVYGDTTGLLAQLEVDLTDGTRVTVITDGRWKGGYGDLLSADLYDGCERDLRAEPHGWQLPGFADDGWEPVAVLPLPEGLGQRAHPPVRVVRTVRPRLRTLADGTIAVDAGENVTGRLRIRADGRPGGTVTVRHAEVLDGDGRLLTSILRGARATDRYTLAEGPADLTPEFTFHGFRYAEIDASPDVSVEAVEVEVVAGDLRRIGEFHCSDERVNTLYANVVRSQRGNFLAVPTDCPQRDERLGWTGDIMAFAPTACATFDSASFLDSRLTDLRIQQRPDGAVPMVVPDVPLGELPPAELPFAGAAAGWGDAATVVPAALFEAYGQPHLLERHYTAMRAWVEFTVAHLDEDGTWSGNAQLGDWLDPAAPPENPAAATTDSGYVATAFVAHSARLLADAARELGFPEDADRYTALHRRTAEAAWRKWGDHARTTQTGCALALEFGIAPAGERAEVGKALASLVRANGGRIATGFLGTPFVLPALGDTGHVAEAYELLLNPECPGWLHQVSRGATTMWERWDAIGPDGTVDVENAGTMLSFNHYAYGAVASWLYRSVAGLRPASPGYRTLDIAPRPGATLTSAEAAVDTPYGTASVAWSIGDGSLTVRAVLPPGTTGRFSAPEGWTCTEPVDALASGSHVLSLRPLTRP
B3: 1016 (protein, listed as Olsenella profusa)
chain: MRATNLTVACLTNPLGIDVRCPELAWIDEDGLSQSAYQVECKDGAGATLWDTGKVASASMRIAWPGAALASRERVTWRVRLWDDGDACGPWSEFASIEEGLLSADDWCARWISGNYDVPTPRAGALGNFRQMVAAMRPASPDQVVTEPILEGRYPVDCFCRAFVVGKAPVRARLYITACGLYEARIDGEKVGDLCMAPGHTDYRKRVQYQTYDVTAALATGAHELTVQLADGWYRGSCGAWGLLNQYGTQTKLLAQLEVTYADGHVDCVATDTDWQWSGDGPILFADNKDGEMVDATRAPSYAGHARDARHDVAPTASNNVPITMHERFSPAPALAPNGRLLFDLGQNIAGWVELDFDAHESQHVLLRCGEMLDADGNLTLKNIQCSREGFATPLQQVEYVCREGHNHYRTTFCVFGFRYVEVETNVQLGEGSLTAIALYSDMRQTGSFECSNELLNRFFESTVWSTKGNSLDVPTDCPTRERHGWSGDAQIFFETLSYLFDCRSFERKWLHDLFDWQKRDGRLPQVAPAGGVDSYMRFLDGSVGWADAGILIPYRYWRHYGDASVLAELYDGMRRYAEFMIRRCGRRGPFSKRVGIHGEAKKYLVNMGQCYGEWAEPADVHKMDWKDTVAPHPEVATAYTDYVLGCMAQIARELGHEEDEARYRQYSEGCRLAYQELSRLPEFSLDTDRQARLVRPLAFGLLDPQQTAYARKRLVKACESYGWRLGTGFLSTPLILDVLAKYDLDAAYRLLENEEMPGWLFMPKMGATTVWESWEGTQAQGGIASLNHYSKGAVCAWLFRVMCGIAPDGERHVTVAPRPGGRFAYAKAGYESPCGFVGCGWQRVEDGWRFAVEVPANCAATVVLPDGSTREVGAGVHEFECVARAAREG
B4: 1023 (protein)
chain: MNLFLSIFLFCSPLFLLGQSELNYPELLYPPQAIKANWVSHPDIQGGEDRIVLFRNEWMVDDPSEAFIINISADNHYFLYVNGNLVTHGPQLSDIRHWKYETIDLKTYLKTGKNLIAIKVVNYGKRRFYGMQSIFTSLMVNGATENAKVLNTSGTDDGWKCSIDDSYRALEVNWRGGGPKSIVGGFYANNPTDFVDKNHYPTDWEQPDFDDSDWVDTQFFEGASSMGGSMAYLLEPRNLPLLTWEKEGIGHTVRTSDIDVSEFPVSGKTVVPEHKKIRFLIDQKYVTNGFPELIFSKGKNAHIKIKYAENLFGPKNTKGDRNIIKGKELLGYYDHVVSNGKERQKFTPNWMRTFRFVEFEIETKGQELVLDSFSNYRSRTHIPSIARFSSNNETYNAIFDICKRTVDICTQDYFLSDAYYETMQYVGDTKIHALLWQAMSGNLAHTKNAIEQFHRSRDADGNILGAYPLRSTFIYPTYSLVWVDMVYDYYQLTNDTDFINTYKDGIIHTLAGFEKNMNELNLVNETQYRYFVDWYTGPNNGGGTATKNNGKNSAVVSLHYVHALQNAARLFKAIGDKHTADTYLDRATAIKSSVYKLCFDPNKNIFAERPDKTVYDQHTNIMAVLTDAIAESEQKALLSNILNDPKLLQATYYYRYYLFEAIKKVGAPELFDLAQRPWQAMIDNHMTTTLERFESDKKPTRSEVHPWSASPAYFYFNYLAGIKSVKNDFQEIEIAPVFGILEDMEGLLPTSKGNILFHLKKIRSKLSAEIIVPKEMSGELVWNEKHIPLKHGQHTYILK
modifications: Zobellia galactanivorans
B5: 1062 (protein, listed as Streptosporangium roseum)
chain: MIGNAVHCAPAQTSPSRSDPAPPRLTPYGLRCEHRQTPLGVGEPRPLLSWRLASARAGDDPVAYELEVGDWSSGRVEDPAAIGAVYGGPPLLPRTRYAWRVTVWARDGAEGSAESWFETGQDVWQASWIAHDPAAVAHMDPPTEGDQALSHHGLLPCPQLRTSFESTAGVTRARLLISAKGLYEARVNGHRAGDAELAPGWTDYRRRIQYQVHDVTPFLLDGENVLAATVADGWWSGFTGFDPRRPGYHYGRFPELIAELHLTFEDGSTRVVATGEGWRTGHGRVRYGDLLKGECHDARAETPGWDLPGFDDSSWRPAVVTGDDHSLLVASRDEPVRALGELLPVSSVLVRPGVHLVDFGQNIAGRVRLAVRDQEPGRRVTVRHGETLDGEDRLHTANLRTADATDVLITAGGAEEVFEPRFTYHGFRYAEVSGIDRLDDIRAIVLHSDTPWTGTFECSDPEINRLHDNIGWGQRGNFVSVPTDCPQRDERLGWLADAQVFLPTACFNADVSGFFSKWMRDVVDAQSPEGGFSNVAPLLSGVADEGAPGWADAGVLVPWHLYRVYGDDRFLDVDSMVRWVDFVARHNPDLIWRHRTGPHFADWLAPGPATPREVLATAFFHRSAALTAEAARVRGLYGEAERMGALADRVRAAFAAAFVGDGGLVEGDTQTGYLLALAFGLLTPEQGRGAAARLAALVEESGPLTGFLGVNLLCPVLSAHGRDDLAHALLRRTDPPSWLYQVRHGATTVWERWDGVGAASMNSFNHYAFGSIGEWLYSGVAGIAQAPGSVAFREVVIRPLPGDLSRAGASYESARGLISVSWHNDAEGFRLQTRIPPGATATVHLPGGETRRVTSGDHIFELVRGEKA
B6: 1002 (protein, listed as Flavobacterium johnsoniae)
chain: MKNFKNILLGLSFLITFISNGQILPVRLTTEMAENPLAVIENQPKFSWQLISKESDVSQVAYLILVASSEEKLNNDDGDIWNSGRVNTDKNLHIVYSGKPLKSETKYFWKVKVWNQLGKISKWSKTASFRTASLESDLNPIWIGAITKADSHLPEGRNYHTATFNREKKMSFINASDSLARRSIMLRKPFEVEKAVKEAVVYISGLGHYELTINGKKVGNSQFAPLWTDYDKTVNYNVYELSAKEFQKGDNVIGVLLGNGMYNTLAERYTKFFVSFGPPTLFFKMKIKYNDGSEEIIKSDRTWKYSKSPITYNSIFGGEDYNANLEQKDWNRKGFKDRDWKKVVIQEAPKGILRPQTAPPVTIQKQYEVKTVKELKPNFYVFDMGQNLSGFPTIKVKGKRGQTIRVWVAEGLNEEGTIAQGRSGKPYYYDYTLKGKDVEEWTPKFSFYGYQYVQIENINYKEDKNKEFPTLVDLKSNFIYNSAGEAGSFACSNEIFNKTHELINNSIKSNFQSVFTDCPQREKLGWLEEIQLNGPSLMFNYNLQTFLPATMQNISDSQRENGLIPTIVPEYVIFGGDFTDSPEWGVTGVILPWMYYEYYGDASLLEKYFPVMKNYVDYLGTKATNHIVSHGLGDWYDYGTHPAGYSKNSPIALSATSHYYYGAFLVAKASKLLGKTEDFEKYNTLASEIKTAFNAAFFNEETKQYGTSSQFSNAVPIFMDIVEPQYKEAVMQNLLADIKEKGDRLTTGDVGNRYLFQTLARNGENETMYRMHNHYDAPGYGFQIKFGLTTLTEQWDPRKGNSWNHFMLGQIEEWFYQSLAGIMSDPEKPGFKHFFIQPEVVGDMTFAKADYQSVYGKIASSWEKKDGKFILTVQIPVNTTATIKLPVAKNSEIKMDGKRVRAGFDEKAQKPVLELGSGIYTIECTI

Test: Experiment 6-1: specificity of rhamnosidases towards other rhamnose residues (C3 saccharide rhamnose, C28 saccharide rhamnose)
Assay type: biochemical, Quillaja saponaria
Details: TBE 2%, pH 7.5, 30 degC, 18 h; LCMS/MS; negative controls 0.18, 0.17

Molecule | ratio PP/QS-21
B1 | 0.17
B2 | 0.18
B3 | 0.18
B4 | 0.17
B5 | 0.18
B6 | 0.16

Test: Experiment 6-1: screening of rhamnosidases for derhamnosylation of saponins in treated bark extract (2%), QS-17 2310 to QS-18 2164 (PAR %)
Assay type: biochemical, Quillaja saponaria
Details: TBE 2%, pH 7.5, 30 degC, 18 h; TIC peak area ratio percent, LCMS/MS; negative controls 3.061, 2.429

Molecule | Peak57 (PAR %) [%]
B1 | 2.658
B2 | 3.383
B3 | 3.326
B4 | 2.889
B5 | 2.941
B6 | 2.843

Test: Experiment 6-1: screening of rhamnosidases for derhamnosylation of saponins in treated bark extract (2%), QS-17 2296 to QS-18 2150 (PAR %)
Assay type: biochemical, Quillaja saponaria
Details: TBE 2%, pH 7.5, 30 degC, 18 h; TIC peak area ratio percent of rhamnosylated starting saponin to derhamnosylated product, LCMS/MS; negative controls 4.876, 5.225

Molecule | QS-17 (PAR %) [%]
B1 | 4.834
B2 | 4.871
B3 | 4.872
B4 | 4.916
B5 | 4.916
B6 | 4.922

Test: Experiment 6-1: screening of rhamnosidases for derhamnosylation of saponins in treated bark extract (2%), desglucosyl-QS-17 2134 to QS-21 1988 (PAR %)
Assay type: biochemical, Quillaja saponaria
Details: TBE 2%, pH 7.5, 30 degC, 18 h; TIC peak area ratio percent, LCMS/MS; negative controls 2.719, 2.158

Molecule | Peak75 (PAR %) [%]
B1 | 2.538
B2 | 2.599
B3 | 2.498
B4 | 2.120
B5 | 2.410
B6 | 2.538
